In article PMC4751364, “Mitotic Activation of a Novel Histone Deacetylase 3-Linker Histone H1.3 Protein Complex by Protein Kinase CK2*” (The Journal of Biological Chemistry, 2015):

Target: T1, Human recombinant HDAC3 (human, UniProt O15379 1-428)
T1 construct: human recombinant HDAC3 (Biomol); No catalogue number, host or tag is printed for the bought protein; also called recombinant human HDAC3; source: bought: Biomol
Experiment: pull-down; recombinant HDAC3 (8 ug) incubated with recombinant H1.3 (4 ug), overnight at 4 C; pulled down with anti-HDAC3 antibody and protein A/G-agarose; SDS-PAGE, Coomassie staining
Conditions: both partners purified

T1 sequence (O15379 whole entry): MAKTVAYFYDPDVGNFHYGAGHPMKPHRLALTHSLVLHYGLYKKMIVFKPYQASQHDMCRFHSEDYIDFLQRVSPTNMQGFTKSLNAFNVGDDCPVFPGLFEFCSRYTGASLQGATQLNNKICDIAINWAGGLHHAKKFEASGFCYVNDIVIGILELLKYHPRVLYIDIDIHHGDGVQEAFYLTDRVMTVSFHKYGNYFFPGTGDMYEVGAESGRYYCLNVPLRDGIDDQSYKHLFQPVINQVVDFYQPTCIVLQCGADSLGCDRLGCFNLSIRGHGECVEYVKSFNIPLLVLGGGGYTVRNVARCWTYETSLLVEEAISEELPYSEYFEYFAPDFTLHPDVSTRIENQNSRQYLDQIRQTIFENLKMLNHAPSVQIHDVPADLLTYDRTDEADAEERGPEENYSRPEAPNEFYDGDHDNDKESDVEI

B1: Human recombinant H1.3 (natural protein, UniProt P16402 1-221, looked up)
chain: MSETAPLAPTIPAPAEKTPVKKKAKKAGATAGKRKASGPPVSELITKAVAASKERSGVSLAALKKALAAAGYDVEKNNSRIKLGLKSLVSKGTLVQTKGTGASGSFKLNKKAASGEGKPKAKKAGAAKPRKPAGAAKKPKKVAGAATPKKSIKKTPKKVKKPATAAGTKKVAKSAKKVKTPQPKKAAKSPAKAKAPKPKAAKPKSGKPKVTKAKKAAPKKK
notes: human recombinant histone H1.3 (Alexis Biochemicals); No catalogue number, host or tag is printed for the bought protein; also called recombinant human histone H1.3; source: bought: Alexis Biochemicals
B1: binds.
